# Test results taken from a protein production outcome set (Wang et al. 2014).
# Assay: label from the status in PepcDB records
row,Sequence,protein production
1,MAAGFFQAEMSILSSTLARSYSLPIRKTLMTFDFRIAMQRNPCLRIRRSCVAAFSSTPSHSRNFPIRGLEDVFVGYLFGRKKATEVAHVVWEQVIQKGDTVIDATCGNGNDTLAMLKMVMHDSVGCGGYVYAMDIQKDAIESTSSLLDQAVGSKEKECVKLFNLCHSKMGEIVPENARVRMVAFNLGYLPGGNKSIITLSDTTLSALKAAERILKPGGLISLVVYIGHPGGREELEVVEAFGSGLPVSDWICCKFQMLNRPLAPVLVFMFKREN,failed
2,MAAITEFLPKEYGYVVLVLVFYCFLNLWMGAQVGRARKRYNVPYPTLYAIESENKDAKLFNCVQRGHQNSLEMMPMYFILMILGGMKHPCICTGLGLLYNVSRFFYFKGYATGDPMKRLTIGKYGFLGLLGLMICTISFGVTLILA,failed
3,MAAKICNRKNCKRSVQKMRIRSLLIILTIGLLLVNAICVSALGQTSESIARGDVYFGLMRYRDAIAWYKLDSTKAEAQWKIARAYVCYGDNAVPAEKEYNFRNAVRAANKCIELEETNANGHTWLAAALGNTAMYEGSKTKVRLCTQIKKELNRAIALNPKDDIAYSILGSFYREIGNISWLEKQLAMTFIGKIPDGTYEDSEKAFAKAIALNPTIMRHWYEQGLLYKYWNKNEQAIASFNKAKACPVFVSSDNKRLAAIEVYLKNLQ,failed
4,MAAKPGIPKGTRDFSPVEMAKRNYIFNTIRDVFHLFGYQQIETPSMENLSTLMGKYGDEGDKLLFKIQNSGDYFNGITDEELLSRNAVKLASKFCEKGLRYDLTVPFARYVVMHRDEISFPFKRYQIQPVWRADRPQKGRYREFYQCDADVVGSNSLLNEVELVQMIDRVFGKFGVRVSIKINNRKILTGIAEIIGEADKIVDITVAIDKLDKIGLENVNAELASKGIPQEAIDKLQPIILLSGSNEEKLETLKTVLATSEAGLKGVEESEFILKTVSALGVKSEVELDLTLARGLNYYTGAIFEVKALDVQIGSISGGGRYDNLTGVFGMDGMSGVGISFGADRIFDVLNQLDLYPKE,not failed
5,MAALAEEQTEVAVKLEPEGPPTLLPPQAGDGAGEGSGGTPNNGPNGGGGGNVAVAAAAGGDGGTPKPGVAVSAAAPAGAAPVPAAPAEAGAPHDRQTLLAVLQFLRQSNLREAEEALRREARLLEEAVAGSGAPGELDGAGAEAASALLSRVTASVPGSAAPEPPGTGASVTSVFSGSASGPAAPGKVASVAVEDQPDVSAVLSAYNQQGDPTMYEEYYSGLKHFIECSLDCHRAELSQLFYPLFVHMYLELVYNQHENEAKSFFEKFHGDQECYYQDDLRVLSSLTKKEHMKGNETMLDFRTSKFVLRISRDSYQLLKRHLQEKQNNQIWNIVQEHLYIDIFDGMPRSKQQIDAMVGSLAGEAKREANKSKVFFGLLKEPEIEVPLDDEDEEGENEEGKPKKKKPKKDSIGSKSKKQDPNAPPQNRIPLPELKDSDKLDKIMNMKETTKRVRLGPDCLPSICFYTFLNAYQGLTAVDVTDDSSLIAGGFADSTVRVWSVTPKKLRSVKQASDLSLIDKESDDVLERIMDEKTASELKILYGHSGPVYGASFSPDRNYLLSSSEDGTVRLWSLQTFTCLVGYKGHNYPVWDTQFSPYGYYFVSGGHDRVARLWATDHYQPLRIFAGHLADVNCTRFHPNSNYVATGSADRTVRLWDVLNGNCVRIFTGHKGPIHSLTFSPNGRFLATGATDGRVLLWDIGHGLMVGELKGHTDTVCSLRFSRDGEILASGSMDNTVRLWDAVKAFEDLETDDFTTATGHINLPENSQELLLGTYMTKSTPVVHLHFTRRNLVLAAGAYSPQ,failed
6,MAAMPKPAAFWNDRFANEEYVYGEAPNRFVASAARTWLPEAGEVLLLGAGEGRNAVHLAREGHTVTAVDYAVEGLRKTERLATEAGVEVEAIQADVREWKPARAWDAVVVTFLHLPADERPGLYRLVQRCLRPGGRLVAEWFRPEQRTDGYTSGGPPDPAMMVTADELRGHFAEAGIDHLEAAEPTLDEGMHRGPAATVRLVWCRPSTSLEHHHHHH,not failed
7,MAANMYRVGDYVYFENSSSNPYLIRRIEELNKTANGNVEAKVVCFYRRRDISSTLIALADKHATLSVCYKAGPGADNGEEGEIEEEMENPEMVDLPEKLKHQLRHRELFLSRQLESLPATHIRGKCSVTLLNETESLKSYLEREDFFFYSLVYDPQQKTLLADKGEIRVGNRYQADITDLLKEGEEDGRDQSRLETQVWEAHNPLTDKQIDQFLVVARSVGTFARALDCSSSVRQPSLHMSAAAASRDITLFHAMDTLHKNIYDISKAISALVPQGGPVLCRDEMEEWSASEANLFEEALEKYGKDFTDIQQDFLPWKSLTSIIEYYYMWKTTDRYVQQKRLKAAEAESKLKQVYIPNYNKPNPNQISVNNVKAGVVNGTGAPGQSPGAGRACESCYTTQSYQWYSWGPPNMQCRLCASCWTYWKKYGGLKMPTRLDGERPGPNRSNMSPHGLPARSSGSPKFAMKTRQAFYLHTTKLTRIARRLCREILRPWHAARHPYLPINSAAIKAECTARLPEASQSPLVLKQAVRKPLEAVLRYLETHPRPPKPDPVKSVSSVLSSLTPAKVAPVINNGSPTILGKRSYEQHNGVDGNMKKRLLMPSRGLANHGQARHMGPSRNLLLNGKSYPTKVRLIRGGSLPPVKRRRMNWIDAPDDVFYMATEETRKIRKLLSSSETKRAARRPYKPIALRQSQALPPRPPPPAPVNDEPIVIED,failed
8,MAAPLRIQSDWAQALRKDEGEAWLSCHPPGKPSLYGSLTCQGIGLDGIPEVTASEGFTVNEINKKSIHISCPKENASSKFLAPYTTFSRIHTKSITCLDISSRGGLGVSSSTDGTMKIWQASNGELRRVLEGHVFDVNCCRFFPSGLVVLSGGMDAQLKIWSAEDASCVVTFKGHKGGILDTAIVDRGRNVVSASRDGTARLWDCGRSGCLGVLADCGSSINGVAVGAADNSINLGSPEQMPSEREVGTEAKMLLLAREDKKLQCLGLQSRQLVFLFIGSDAFNCCTFLSGFLLLAGTQDGNIYQLDVRSPRAPVQVIHRSGAPVLSLLSVRDGFIASQGDGSCFIVQQDLDYVTELTGADCDPVYKVATWEKQIYTCCRDGLVRRYQLSDL,failed
9,MAAQALLSVGERRLLRGVDEQRALGAALARALAPGSVLFLEGELGAGKTTLTQGLLAALGFDGHVTSPTYALMQLYPASAGQVLHVDAYRVRDVAELYEMDLDELIAGSRLSVIEWGEGLYADYPQAPIYLFEHVEGDPETRRVTRRRLEHHHHHH,failed
10,MAASLRSFLEQLKRQNSLYLVKKPVNPRFELGALLKKTKGTVPMFFQNIEGYDVPAVGGIVGTRENFAQALRINKSELLAKITEAITNPGETRLLPSGPVQENVLTKGFDIGKMFPIPTFHEKDSGAFITAGIVVAKDPIYGRRFTSIRRMQLNGPNNLSILIESPGLIEQYYEFERRGQAMEVAIVLGVHPAITLSSQLPTQTFGLDKYNVASRLIGEPLPVVKCKTIDLEVPADAEIVLEGRMLPYVRHPEGPFGELMGYYGPQTMQPVVEVTAVTFRNNPIFQVIFPSSYEHKLPNALMREVVLFNHVRHVVPTVQDVHLTMAGGGRCHAIISIKKTAEGQGKQAIFAALASNKDVKHVVVVNDDVDIFDPEDVEWAIATRVQADQDIIIIPGAQGTPLEPSHNLRGVSAKMGIDATYPLAEEERFARTQIPGYDQIRLEDYLTLDW,not failed
11,MAASTDIAGLEESFRKFAIHGDPKASGQEMNGKNWAKLCKDCKVADGKAVTGTDVDIVFSKVKAKSARVINYEEFKKALEELATKRFKGKSKEEAFDAICQLIAGKEPANIGVTKAKTGGAVDRLTDTSKYTGSHKER,not failed
12,MAAVSPAAAARSAAAAVRDGGEMVRRMTPQDLDRIAQAVAEAEKTTAGEIFCVLTPEVSDYRETPLVWAAASALVLPAGALLAGFRPEMLTRLFGGWSVGHQAAHDGAILSALSTYIVLQLVVFVVAALVVSIPPVRRALTPGALKTARVKRAAMEQFLSHGLHVTRDRTGVLIFAALAEHRVEVIADEGIYKAAPNAVWNEVVADLVAGLKRGKIADGFVAAVARTGGILAAHVPPRGDDRNELSDGLTILPRR,failed
13,MADCDSVTNSPLATATATLHTNRGDIKIALFGNHAPKTVANFVGLAQGTKDYSTQNASGGPSGPFYDGAVFHRVIQGFMIQGGDPTGTGRGGPGYKFADEFHPELQFDKPYLLAMANAGPGTNGSQFFITVGKTPHLNRRHTIFGEVIDAESQRVVEAISKTATDGNDRPTDPVVIESITIS,not failed
14,MADERRCGVCRPLGGPRQPWPAGLLHCSSRAIFASLCMPRIVFAPAIQRHVAMPALDVGAATVAAALQAAFAREPRLRGYLLDDQGSLRRHVALFVDGVQVRDRRGLGDPLQDDSEIYVVQALSGGLEHHHHHH,failed
